Assay results as given in article PMC1533836.

Target: APNAnq 100 (100-kDa aminopeptidase N from Anopheles quadrimaculatus brush border membrane) (Anopheles quadrimaculatus)
Test: SPR

Bacillus thuringiensis Cry11Ba toxin (trypsin-activated) (from UniProt Q45730 1-724) (natural protein)
koff: 1.03e-07 s⁻¹
kon: 184 M⁻¹ s⁻¹
